Target: the molecule itself
Test: crystal structure

B1: N-(His)10-tagged CalG3 (native) (enzyme, Micromonospora echinospora, UniProt Q8KND7 1-376, looked up)
chain: MLFVSSPGIGHLFPLIQLAWGFRTAGHDVLIAVAEHADRAAAAGLEVVDVAPDYSAVKVFEQVAKDNPRFAETVATRPAIDLEEWGVQIAAVNRPLVDGTMALVDDYRPDLVVYEQGATVGLLAADRAGVPAVQRNQSAWRTRGMHRSIASFLTDLMDKHQVSLPEPVATIESFPPSLLLEAEPEGWFMRWVPYGGGAVLGDRLPPVPARPEVAITMGTIELQAFGIGAVEPIIAAAGEVDADFVLALGDLDISPLGTLPRNVRAVGWTPLHTLLRTCTAVVHHGGGGTVMTAIDAGIPQLLAPDPRDQFQHTAREAVSRRGIGLVSTSDKVDADLLRRLIGDESLRTAAREVREEMVALPTPAETVRRIVERISG
- stoichiometry N: 2
